Results reported in patent publication US20190153089A1 (NUMAB INNOVATION, published 2019).

B1: humanized scFv 17-21-A01-sc01 (CDR graft) (scFv)
scFv: MDIQMTQSPSSLSASVGDRVTITCQASESIGNALAWYQQKPGKAPKLLIYSASTLASGVPSRFSGSGSGTDFTLTISSLQPEDFATYYCQSYYYSSSGSYVAFGGGTKLTVLGGGGGSGGGGSGGGGSGGGGSEVQLVESGGGLVQPGGSLRLSCAASGIDFNKYYFMCWVRQAPGKGLEWIGCINTGSGSTYYATWAKGRFTISRDNSKNTVYLQMNSLRAEDTAVYYCARASGSSSVVYIGVYFSLWGQGTLVTVSS
B2: humanized scFv 17-21-A01-sc03 (CDR graft with disulfide bridge, CDR/DS) (scFv)
scFv: MDIQMTQSPSSLSASVGDRVTITCQASESIGNALAWYQQKPGKAPKLLIYSASTLASGVPSRFSGSGSGTDFTLTISSLQPEDFATYYCQSYYYSSSGSYVAFGCGTKLTVLGGGGGSGGGGSGGGGSGGGGSEVQLVESGGGLVQPGGSLRLSCAASGIDFNKYYFMCWVRQAPGKCLEWIGCINTGSGSTYYATWAKGRFTISRDNSKNTVYLQMNSLRAEDTAVYYCARASGSSSVVYIGVYFSLWGQGTLVTVSS
notes: A disulfide bridge was introduced between residues VL141-VH51; also called 17-21-A01-sc03 (CDR/DS)
B3: recombinant human TNFβ (Peprotech, Cat. No. 300-01B) (ligand, UniProt P01374 35-205, looked up)
chain: LPGVGLTPSAAQTARQHPKMHLAHSTLKPAAHLIGDPSKQNSLLWRANTDRAFLQDGFSLSNNSLLVPTSGIYFVYSQVVFSGKAYSPKATSSPLYLAHEVQLFSSQYPFHVPLLSSQKMVYPGLQEPWLHSMYHGAAFQLTQGDQLSTHTDGIPHLVLSPSTVFFGAFAL

Key:
[1] = target: T1, Rhesus monkey TNFα (R&D Systems, Cat. No. 1070-RM-025/CF) (Rhesus monkey (Macaca mulatta), UniProt P48094 77-233); assay: SPR
T1 construct: also called Rhesus TNFα; Macaca mulatta TNFα
Method: (§1) In a second step, for the best performing scFvs, Single Injection Cycle Kinetics (SiCK) were measured from a single injection cycle by simultaneously injecting six analyte samples at different concentrations into each of the eight parallel channels in the MASS-1 system. […] The apparent dissociation (kd) and association (kₐ) rate constants and the apparent dissociation equilibrium constant (KD) were calculated with the MASS-1 analysis software (Analyzer, Sierra Sensors) using one-to-one Langmuir binding model and quality of the fits was monitored based on Chi², which is a measure for the quality of the curve fitting. The smaller the value for the Chi² the more accurate is the fitting to the one-to-one Langmuir binding model. For affinity screenings, results were deemed valid if the Chi² was below 10 for the concentration analyzed. In cases where several scFv concentrations were analyzed, results were deemed valid if the average Chi² over all the concentrations tested was below 10.

[2] = target: T2, recombinant Cynomolgus monkey TNFα (Sino Biological, Cat. No. 90018-CNAE) (Cynomolgus monkey (Macaca fascicularis), UniProt P79337 77-233); assay: SPR
T2 construct: also called Cyno TNFα; Cynomolgus TNFα
Method: as §1

[3] = target: T1, Rhesus monkey TNFα (R&D Systems, Cat. …); assay: cell-based or functional assay
[4] = target: T2, recombinant Cynomolgus monkey TNFα …; assay: cell-based or functional assay
[5] = target: T3, recombinant human TNFα (Peprotech, Cat. No. 300-01) (human, UniProt P01375 77-233, biotinylated in the inhibition and competition ELISAs; unlabelled elsewhere); assay: cell-based or functional assay
[6] = target: T3, recombinant human TNFα (Peprotech, Cat. …); assay: inhibition ELISA, biotinylated TNFα (960 pM) preincubated with scFv, binding to coated TNFRII-Fc
From the text: (§2) For the first inhibition ELISA, the extracellular domain of TNFRI fused to the Fc region of human IgG (R&D Systems, Cat. No. 372-RI) was coated on a 96-well Maxisorp ELISA at a concentration of […]. For the second inhibition ELISA, the extracellular domain of TNFRII fused to the Fc region of human IgG (R&D Systems, Cat. No. 726-R2) was coated at a concentration of […]. All subsequent steps were identical for both assays.

[7] = target: B3; assay: competition ELISA: unlabeled TNFβ against biotinylated TNFα on coated scFv
Method: (§3) For this purpose, the scFvs were coated on a 96-well Maxisorp ELISA plate at a concentration of […]. […] To control precision of the response, the dose-response curves were analyzed in duplicate.

[8] = target: T3, recombinant human TNFα (Peprotech, Cat. …); assay: inhibition ELISA, biotinylated TNFα (960 pM) preincubated with scFv, binding to coated TNFRI-Fc
From the text: as §2

[9] = target: T1, Rhesus monkey TNFα (R&D Systems, Cat. …); assay: SPR (MASS-1), TNFα immobilized, scFv 45-1.4 nM
Method: as §1

[10] = target: T2, recombinant Cynomolgus monkey TNFα …; assay: SPR (MASS-1), TNFα immobilized, scFv 45-1.4 nM
Method: as §1

[11] = target: T3, recombinant human TNFα (Peprotech, Cat. …); assay: SPR (MASS-1), TNFα immobilized, scFv 45-1.4 nM
Method: as §1

[12] = target: B1; assay: competition ELISA: unlabeled TNFβ against biotinylated TNFα on coated scFv; scFv 17-21-A01-sc01
Method: as §3

[13] = target: B2; assay: competition ELISA: unlabeled TNFβ against biotinylated TNFα on coated scFv; scFv 17-21-A01-sc03
Method: as §3

[14] = target: B1; assay: competition ELISA: unlabeled TNFβ or TNFα against biotinylated TNFα on coated scFv
Method: as §3

[15] = target: B2; assay: as above
Method: as §3

T1 sequence (P48094 77-233 limits assumed): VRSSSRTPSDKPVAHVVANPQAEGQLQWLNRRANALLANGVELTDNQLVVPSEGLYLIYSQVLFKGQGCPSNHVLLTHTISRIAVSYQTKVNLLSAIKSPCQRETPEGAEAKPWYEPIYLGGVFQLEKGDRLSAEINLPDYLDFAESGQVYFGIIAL
T3 sequence (P01375 77-233 limits assumed): as the sequence (P48094 77-233 limits assumed) above, with T44R, N72T, L138R counted along it
T2 sequence (P79337 77-233 limits assumed): as the sequence (P48094 77-233 limits assumed) above, with L37V counted along it

Binder | Species-specificity IC50, L929 assay with Rhesus TNFα [3] | Species-specificity IC50, L929 assay with Cynomolgus TNFα [4] | Potency, rel. IC50 in L929 assay (IC50 infliximab / IC50 scFv, ng/mL) [5] | Potency, rel. IC90 in L929 assay (IC90 infliximab / IC90 scFv, ng/mL) [5] | Species-specificity IC50, L929 assay with human TNFα [5] | IC50 [6] | rel. IC50 (IC50 infliximab / IC50 scFv, ng/mL) [6] | rel. IC90 (IC90 infliximab / IC90 scFv, ng/mL) [6] | binding result [7] | IC50 [8] | rel. IC50 (IC50 infliximab / IC50 scFv, ng/mL) [8] | rel. IC90 (IC90 infliximab / IC90 scFv, ng/mL) [8] | Kd [11] | koff [11] | kon [11] | also measured
B1 | 0.111 µg/mL | 0.193 µg/mL | 9.2 fold | 12.2 fold | 0.0014 µg/mL | 0.0541 µg/mL | 2.2 fold | 0.8 fold | no binding (tested: 1250 µg/mL) | 0.0316 µg/mL | 2.9 fold | 2 fold | 0.21 nM | 0.00014 s⁻¹ | 660000 M⁻¹ s⁻¹ | fold difference in affinity against human TNFα [1]: ~5 fold; fold difference in affinity against human TNFα [2]: ~5 fold; Kd [9]: 2.5 nM; koff [9]: 0.0019 s⁻¹; kon [9]: 760000 M⁻¹ s⁻¹; Kd [10]: 2.4 nM; koff [10]: 0.0016 s⁻¹; kon [10]: 650000 M⁻¹ s⁻¹
B2 | 0.0542 µg/mL | 0.0506 µg/mL | 6.5 fold | 6.4 fold | 0.0012 µg/mL | 0.0467 µg/mL | 2.6 fold | 0.8 fold | no binding (tested: 1250 µg/mL) | 0.0502 µg/mL | 1.8 fold | 1.8 fold | 0.27 nM | 0.00011 s⁻¹ | 400000 M⁻¹ s⁻¹ | –
B3 | – | – | – | – | – | – | – | – | – | – | – | – | – | – | – | IC50 [12]: > 1250 µg/mL; IC50 [13]: > 1250 µg/mL; Target selectivity, rel. IC50 of TNFβ vs TNFα [14]: > 10000 fold; Target selectivity, rel. IC50 of TNFβ vs TNFα [15]: > 10000 fold
